Reference: paper doi:10.1101/2025.06.16.659985, “Dynamic assembly of malate dehydrogenase-citrate synthase multienzyme complex in the mitochondria” (bioRxiv, 2025)

T1: recombinant yeast CIT1 (yeast (Saccharomyces cerevisiae), UniProt P00890 38-479)
T1 construct: citrate synthase CIT1, mitochondrial, yeast (Saccharomyces cerevisiae); also called recombinant CIT1; source: recombinant; produced according to the Supplementary Methods
T1 sequence (looked up): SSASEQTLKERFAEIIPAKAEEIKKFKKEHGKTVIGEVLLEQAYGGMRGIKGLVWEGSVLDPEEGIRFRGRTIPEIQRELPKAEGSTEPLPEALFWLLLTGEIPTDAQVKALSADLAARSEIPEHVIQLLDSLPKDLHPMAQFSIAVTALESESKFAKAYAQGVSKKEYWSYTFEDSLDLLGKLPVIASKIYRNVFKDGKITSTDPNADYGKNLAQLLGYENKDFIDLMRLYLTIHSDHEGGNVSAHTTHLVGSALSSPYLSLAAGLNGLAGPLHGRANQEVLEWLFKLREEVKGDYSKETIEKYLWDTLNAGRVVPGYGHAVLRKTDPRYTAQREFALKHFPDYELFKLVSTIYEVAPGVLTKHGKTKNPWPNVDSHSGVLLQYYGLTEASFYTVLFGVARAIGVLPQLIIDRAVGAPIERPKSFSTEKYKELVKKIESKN

T2: recombinant yeast MDH1, fluorescently labeled (yeast (Saccharomyces cerevisiae), UniProt P17505 18-334, labeled with Protein Labeling Kit RED-NHS 2nd Generation (NanoTemper))
T2 chain: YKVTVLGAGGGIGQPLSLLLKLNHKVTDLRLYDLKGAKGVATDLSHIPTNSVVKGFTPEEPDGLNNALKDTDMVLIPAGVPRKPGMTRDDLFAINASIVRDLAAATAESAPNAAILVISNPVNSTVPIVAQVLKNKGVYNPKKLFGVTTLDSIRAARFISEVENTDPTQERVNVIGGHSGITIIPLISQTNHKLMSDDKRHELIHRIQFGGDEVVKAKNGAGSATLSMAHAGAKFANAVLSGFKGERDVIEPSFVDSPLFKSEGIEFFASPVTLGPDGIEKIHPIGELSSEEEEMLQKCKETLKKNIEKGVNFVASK

B1: recombinant yeast MDH1, fluorescently labeled (enzyme, yeast (Saccharomyces cerevisiae), UniProt P17505 18-334, looked up)
chain: T2 chain
modifications: labeled with Protein Labeling Kit RED-NHS 2nd Generation (NanoTemper)
notes: malate dehydrogenase MDH1, mitochondrial, yeast (Saccharomyces cerevisiae); also called recombinant MDH1; labeled MDH1; source: recombinant; produced according to the Supplementary Methods
B2: recombinant yeast CIT1 (enzyme)
chain: T1 sequence (looked up)

Key:
recombinant yeast CIT1 [1] = biological target: T1, recombinant yeast CIT1; assay: MST; labeled MDH1 as target, CIT1 titrated (two-fold dilutions of 80 μM, 16 concentrations), Monolith NT.115, room temperature; buffer pH 6.0; conditions: both partners purified
recombinant yeast CIT1 [2] = biological target: T1, recombinant yeast CIT1; assay: MST; labeled MDH1 as target, CIT1 titrated (two-fold dilutions of 80 μM, 16 concentrations), Monolith NT.115, room temperature; buffer pH 6.4; conditions: both partners purified
recombinant yeast CIT1 [3] = biological target: T1, recombinant yeast CIT1; assay: MST; labeled MDH1 as target, CIT1 titrated (two-fold dilutions of 80 μM, 16 concentrations), Monolith NT.115, room temperature; buffer pH 7.2; conditions: both partners purified
[4] = biological target: T2, recombinant yeast MDH1, fluorescently …; assay: MST; pH 6.8
[5] = biological target: T2, recombinant yeast MDH1, fluorescently …; assay: MST; 10 mM malate
[6] = biological target: T2, recombinant yeast MDH1, fluorescently …; assay: MST; 10 mM fumarate
[7] = biological target: T2, recombinant yeast MDH1, fluorescently …; assay: MST; control (no metabolite)

| Binder | Kd (recombinant yeast CIT1 [1]) [nM] | Kd (recombinant yeast CIT1 [2]) [nM] | Kd (recombinant yeast CIT1 [3]) [µM] | Kd [4] [nM] | Kd [5] [nM] | Kd [6] [nM] | Kd [7] [µM] |
| --- | --- | --- | --- | --- | --- | --- | --- |
| B1 | 33 | 223 | 3.48 | – | – | – | – |
| B2 | – | – | – | 2720 | 367 | 288 | 6.07 |
